# Test results reported in patent US12565517B2, “Cyclic peptide having CTLA-4 inhibitory activity and use thereof” (GeneFrontier Corporation, priority 2019, dated 2026).
# Target: T1, CTLA-4 (Homo sapiens, UniProt P16410)
# T1 sequence (P16410 36-223): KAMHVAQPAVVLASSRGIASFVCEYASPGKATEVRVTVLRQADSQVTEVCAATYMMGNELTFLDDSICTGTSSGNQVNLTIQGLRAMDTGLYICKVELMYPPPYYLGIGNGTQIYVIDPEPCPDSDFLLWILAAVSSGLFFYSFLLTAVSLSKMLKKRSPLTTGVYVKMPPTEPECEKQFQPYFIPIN
# Experiment: ELISA binding of clones after Affinity Maturation with random library (Tables 10, 11)
# Conditions: CTLA-4 binding ELISA of clones after Affinity Maturation from random (NNS) library; signal/noise ratio; clones of 4th or 5th round
# Experimental: After each round of Affinity Maturation, the cyclic peptide genes were recovered and subcloned into pET-Mal vector (FIG. 2) in the same manner as described above to perform base sequence analysis. For the 94 single colonies analyzed for sequence, E. coli transformants were inoculated into 100 μL of 2×YT medium containing ampicillin (final concentration 50 μg/mL), incubated at 37° C. for 3-5 hours (OD600=0.5-0.8), then added with IPTG (final concentration 0.5 mM) and incubated at 25° C. overnight. 10 μL of E. coli cultured medium was added with 90 μL of PBS and 40 μL of lysis reagent (20 μL BugBuster Protein Extraction Reagent (Novagen), 20 μL Lysozyme solution 2.5 mg/mL) to lyse E. coli cells for 1 hour at room temperature. The cell lysate was added with 40 μL of 12.5% skim milk solution (TBST) and blocked for 1 hour at room temperature. In parallel, antigen protein was immobilized overnight at 4° C. in 384-well plates at 100 ng/20 μL per well, and each well was washed twice with 100 μL/well of TBST, added with 100 μL/well of 5% skim milk solution (TBST) for blocking for 1 hour at room temperature, and washed twice with 100 μL/well of TBST to obtain antigen-immobilized plates. 20 μL/well of blocking-treated E. coli extract was added to the antigen-immobilized plates and gently stirred at room temperature using a plate mixer. After 1 hour, the plates were washed 5 times with 100 μL/well of TBST, 20 μL/well of anti-FLAG M2-HRP conjugate (1:2000 dilution, Sigma) was added and gently stirred on a plate mixer for 1 hour at room temperature. The plates were washed 5 times with 100 μL/well of TBST, and binding of cyclic peptides to the antigen was detected by 20 μL/well of chromogenic substrate (0.4 mg/mL 3,3′,5,5′-Tetramethyl-benzidine, 0.01% hydrogen peroxide). After 15 minutes of reaction at room temperature, the reaction was stopped with 20 μL/well of 2N HCl, and absorbance at 450 nm was measured using a plate reader (infinite F200: TECAN) (Table 5).
# Oligo DNAs of a library were synthesized (see below), in which amino acid residues (positions 1, 4, 8, 10, +1 and +2) (corresponding to X1, […], X8, X10, X+1 and X+2) other than those essential or advantageous for CTLA-4 binding (2H, 3P, 5L, 6P, 7I, 9S, 11H, 12F) identified by alanine scanning were randomized (NNS).
# Affinity Maturation was performed in the same manner as described above. The amount of biotinylated CTLA-4 immobilized on the magnetic beads was 10 pmol in the 1st round, 2 pmol in the 2nd round, and 1 pmol in the 3nd-5th rounds, respectively. The washing period was 2 hours for the 1st round, 19 hours for the 2nd round, 67 hours for the 3nd round, 140 hours for the 4th round, and 340 hours for the 5th round. Washing frequency was 1 time (2 hours) in the 1st round, 2 times (every 10 hours) in the 2nd round, 6 times (every 10 hours) in the 3rd round, 14 times (every 10 hours) in the 4th round, and 36 times (every 10 hours) in the 5th round.
row,Substance,ELISA S/N(SA)
1,C4m#19-5th4w-NN6-19 (GGCRHPYLPIWSIHFCQK; C4m#19-5th4w-NN6-19),29.7
2,C4m#19-5th2w-NNS6-4 (GGCFHPWLPISSLHFCPF; C4m#19-5th2w-NNS6-4),6.3
3,C4m3127-4th-NNS6-28 (GGCLHPFLPIFSSHFCAL; C4m3127-4th-NNS6-28) [Clone C4m3127-4th-NNS6-28],23.2
4,C4m3127-4th-NNS6-70 (GGCSHPYLPIHSRHFCLS; C4m3127-4th-NNS6-70) [Clone C4m3127-4th-NNS6-70],4.6
5,C4m#19-5th2w-NNS6-12 (GGCWHPYLPIRSVHFCGR; C4m#19-5th2w-NNS6-12),20.4
6,C4m#19-5th2w-NNS6-55 (GGCMHPYLPIKSVHFCPL; C4m#19-5th2w-NNS6-55),28.3
7,C4m#19-5th2w-NNS6-80 (GGCLHPFLPIVSWHFCPC; C4m#19-5th2w-NNS6-80),3.6
8,C4m#19-5th4w-NN6-46-1 (GGCVHPALPIWSFHFCPS; C4m#19-5th4w-NN6-46-1),14.2
9,C4m#19-5th4w-NN6-74 (GGCFHPFLPIYSWHFCAR; C4m#19-5th4w-NN6-74),15.1
10,C4m#19-5th4w-NN6-44 (GGCRHPFLPIVSWHFCGR; C4m#19-5th4w-NN6-44),30.1
11,C4m#19-5th4w-NN6-39 (GGCWHPFLPIRSLHFCPR; C4m#19-5th4w-NN6-39),35.6
12,C4m#19-5th4w-NN6-45 (GGCRHPWLPIWSVHFCGV; C4m#19-5th4w-NN6-45),15.8
13,C4m#19-5th4w-NN6-78 (GGCWHPALPIRSWHFCPR; C4m#19-5th4w-NN6-78),27.9
14,C4m#19-5th4w-NN6-40 (GGCFHPFLPIRSHHFCML; C4m#19-5th4w-NN6-40),4.0
15,C4m#19-5th4w-NN6-63 (GGCWHPYLPILSRHFCQA; C4m#19-5th4w-NN6-63),16.5
16,C4m#19-5th4w-NN6-49 (GGCMHPYLPIRSFHFCSC; C4m#19-5th4w-NN6-49),4.0
17,C4m#19-5th2w-NNS6-75 (GGCWHPWLPIKSPHFCAL; C4m#19-5th2w-NNS6-75),15.3
18,C4m3127-4th-NNS6-79 (GGCLHPFLPIRSVHFCLR; C4m3127-4th-NNS6-79) [Clone C4m3127-4th-NNS6-79],12.8
19,C4m#19-5th4w-NN6-32 (GGCPHPFLPIWSVHFCPF; C4m#19-5th4w-NN6-32),27.2
20,C4m#19-5th4w-NN6-79 (GGCWHPVLPIRSCHFCAV; C4m#19-5th4w-NN6-79),24.9
21,C4m#19-5th2w-NNS6-45 (GGCRHPFLPIWSVHFCWR; C4m#19-5th2w-NNS6-45),11.0
22,C4m#19-5th4w-NN6-38 (GGCSHPFLPIFSLHFCPV; C4m#19-5th4w-NN6-38),16.6
23,C4m#19-5th4w-NN6-92-1 (GGCVHPFLPIRSVHFCAL; C4m#19-5th4w-NN6-92-1),30.0
24,C4m#19-5th2w-NNS6-33 (GGCRHPFLPIWSFHFCWG; C4m#19-5th2w-NNS6-33),9.4
25,C4m#19-5th4w-NN6-15 (GGCLHPFLPIRSVHFCPF; left off: large carriers; small tags and cut ends),39.9
26,C4m#19-5th4w-NN6-54 (GGCLHPGLPIRSLHFCPR; C4m#19-5th4w-NN6-54),33.3
27,C4m3127-4th-NNS6-60 (GGCWHPFLPISSWHFCGL; C4m3127-4th-NNS6-60) [Clone C4m3127-4th-NNS6-60],11.9
28,C4m#19-5th4w-NN6-77 (GGCRHPFLPIVSTHFCSR; C4m#19-5th4w-NN6-77),30.5

row,Substance,ELISA S/N(SA)
1,C4m#19-5th4w-NN6-87 (GGCLHPVLPIRSFHFCWR; C4m#19-5th4w-NN6-87),21.4
2,C4n#19-5th2w-NNS6-71 (GGCRHPYLPIASPHFCPG; left off: large carriers; small tags and cut ends),22.9
3,C4m#19-5th2w-NNS6-79 (GGCRHPFLPIVSRHFCVA; C4m#19-5th2w-NNS6-79),9.2
4,C4m3127-4th-NNS6-3 (GGCSHPFLPIWSVHFCGQ; C4m3127-4th-NNS6-3) [Clone C4m3127-4th-NNS6-3],10.9
5,C4m#19-5th4w-NN6-64 (GGCWHPVLPIRSVHFCCR; C4m#19-5th4w-NN6-64),13.7
6,C4m#19-5th4w-NN6-67 (GGCLHPFLPIRSVHFCPR; C4m#19-5th4w-NN6-67),45.4
7,C4m#19-5th2w-NNS6-14 (GGCWHPFLPIRSYHFCPW; C4m#19-5th2w-NNS6-14),34.7
8,C4m#19-5th2w-NNS6-8 (GGCRHPFLPIFSLHFCAR; C4m#19-5th2w-NNS6-8),16.5
9,C4m#19-5th4w-NN6-68 (GGCLHPWLPIRSRHFCSR; C4m#19-5th4w-NN6-68),24.7
10,C4m#19-5th4w-NN6-14 (GGCWHPFLPIRSVHFCCR; C4m#19-5th4w-NN6-14),16.1
11,C4m#19-5th2w-NNS6-94 (GGCFHPYLPISSVHFCGR; C4m#19-5th2w-NNS6-94),22.4
12,C4m#19-5th4w-NN6-51 (GGCWHPYLPIVSWHFCSR; C4m#19-5th4w-NN6-51),22.1
13,C4m#19-5th2w-NNS6-46 (GGCFHPFLPIFSYHFCGL; C4m#19-5th2w-NNS6-46),6.1
14,C4m3127-4th-NNS6-66 (GGCAHPHLPIRSVHFCSF; C4m3127-4th-NNS6-66) [Clone C4m3127-4th-NNS6-66],4.8
15,C4m#19-5th4w-NN6-7 (GGCRHPFLPIWSWHFCPF; C4m#19-5th4w-NN6-7),23.0
16,C4m#19-5th4w-NN6-55-4 (GGCVHPSLPILSVHFCPR; C4m#19-5th4w-NN6-55-4),29.5
17,C4m3127-4th-NNS6-89 (GGCWHPFLPIFSAHFCMR; C4m3127-4th-NNS6-89) [Clone C4m3127-4th-NNS6-89],6.6
18,C4m#19-5th4w-NN6-85 (GGCWHPFLPIFSVHFCGC; C4m#19-5th4w-NN6-85),22.9
19,C4m3127-4th-NNS6-7 (GGCRHPFLPIRSPHFCGS; C4m3127-4th-NNS6-7) [Clone C4m3127-4th-NNS6-7],4.7
20,C4m3127-4th-NNS6-94 (GGCRHPVLPIWSSHFCPW; C4m3127-4th-NNS6-94) [Clone C4m3127-4th-NNS6-94],5.9
21,C4m#19-5th2w-NNS6-22 (GGCMHPFLPIQSVHFCSR; C4m#19-5th2w-NNS6-22),29.3
22,C4m#19-5th2w-NNS6-84 (GGCWHPFLPIVSFHFCPF; C4m#19-5th2w-NNS6-84),6.4
23,C4m3127-4th-NNS6-72 (GGCVHPYLPISSIHFCSM; C4m3127-4th-NNS6-72) [Clone C4m3127-4th-NNS6-72],20.0
24,C4m3127-4th-NNS6-16 (GGCWHPYLPIFSVHFCPR; C4m3127-4th-NNS6-16) [Clone C4m3127-4th-NNS6-16],16.5
25,C4m#19-5th2w-NNS6-66 (GGCRHPFLPIFSVHFCPF; C4m#19-5th2w-NNS6-66),4.4
26,C4m#19-5th2w-NNS6-21 (GGCWHPFLPIRSSHFCPS; C4m#19-5th2w-NNS6-21),31.1
27,C4m#19-5th4w-NN6-4 (GGCRHPYLPIVSRHFCPF; C4m#19-5th4w-NN6-4),31.6

# Same assay, conditions: S/N ratio of CTLA-4 binding in ELISA; clones from 4th or 5th round of Affinity Maturation from random (NNS) library
row,Substance,ELISA S/N(SA)
1,C4m#19-5th2w-NNS6-93 (GGCFHPFLPIQSRHFCCR; C4m#19-5th2w-NNS6-93),3.4
2,C4m3127-4th-NNS6-95 (GGCWHPVLPIRSGHFCSR; C4m3127-4th-NNS6-95) [Clone C4m3127-4th-NNS6-95],3.4
